Reference: a protein production outcome set (Wang et al. 2014)

test: label from the status in PepcDB records

Sequence	protein production
MDIQRSILIVALAVVSYLLVLQWNKDYGQPELPAASASMNTTQGLPDTPSASGTSSDVPTAQSSAAGSEAADKPVAVSDKLIQVKTDVLDLAIDPRGGDIVQLGLLQYPRRLDRPDVPFPLFDNGRERTYLAQSGLTGADGPDASSAGRPLFRSAQSSYQLADGQNELVVDLSFSHDGVNYIKRFTFHRGLKADCSDKEKAQKKIECINENAYQVGVSYLIDNQSGKTWSGNLFAQLKRDGSADPSSTTATGVSTYLGAAVWTPDSPYKKISTKDMDKEQFKESVQGGWVAWLQHYFVTAWVPTKGEQHQVMTRKDGQGNYIVGFTGPTLSVPAGSKVETDLTLYAGPKLQKHLKELSPGLELTVDYGFLWFIAQPIFWLLQHIHSLIGNWGWSIIALTVLIKLAFFPLSAASYRSMARMRAVSPKMQAIKEQHGDDRQKMSQAMMELYKKEKINPLGGCLPILVQMPVFLSLYWVLLESVEMRQAPWLGWITDLSVKDPFFILPIVMGGTMLIQQMLNPTPPDPMQAKVMKLMPIIFTFFFLWFPAGLVLYWVVNNCLSIAQQWYITRKIEAAAKTA	failed
MDIRQVTETIAMIEEQNFDIRTITMGISLLDCIDPDINRAAEKIYQKITTKAANLVAVGDEIAAELGIPIVNKRVSVTPISLIGAATDATDYVVLAKALDKAAKEIGVDFIGGFSALVQKGYQKGDEILINSIPRALAETDKVCSSVNIGSTKSGINMTAVADMGRIIKETANLSDMGVAKLVVFANAVEDNPFMAGAFHGVGEADVIINVGVSGPGVVKRALEKVRGQSFDVVAETVKKTAFKITRIGQLVGQMASERLGVEFGIVDLSLAPTPAVGDSVARVLEEMGLETVGTHGTTAALALLNDQVKKGGVMACNQVGGLSGAFIPVSEDEGMIAAVQNGSLNLEKLEAMTAICSVGLDMIAIPEDTPAETIAAMIADEAAIGVINMKTTAVRIIPKGKEGDMIEFGGLLGTAPVMKVNGASSVDFISRGGQIPAPIHSFKN	not failed
MDITMKIAPLLLALGAAGLACCAHAADPKPFTVQQLVKLNKLHSAVVSHDGTKLVYGLKTVNDKGEASSDLYLLDLTQADAKPLQLTSAAGTEHDISFANDDKSIYFLASRSGSSQLFQLPLTGGEAQQVSDLPLDIDGYKLSNDGKQIVLSMRVFPECKDLACSKDKFKAEEERKSTGREYKQLMVRHWDTWEDHARNHLFVGTLNGEKLTKVVDITQGLDTETPPKPFSGMEEVTFTPDGQYVVYSAKAPSKDQAWTTNYDLWQVSVNGGKATNLTADNIAWDAQPTFSSDGRYMAYLAMTKPGFEADRYRIMLRDTSTGQSKEVAPLWDRSPSSLMFAPDNRTLYVTAQDIGQVSIFKVNTQFGDVQSVYSDGSNSLIAIADDQLIFDSKTLVEPGDLYRINTDGQGLKRLTEVNKDKLAEIKFGEFQQFSFKGWNNEDVYGYWIKPANYQEGKKYPIAYLVHGGPQGSFGNGFSGRWNAQLWAGAGYGVVMVDFHGSTGYGQAFTDSISQDWGGKPLEDLQKGLAAVSQQQKWLDPQNACALGGSYGGYMMNWIQGNWNDGFKCLVNHAGLFDMRSMYYVTEEVWFPEHEFGGTYQDNKALYEKFNPVNYVENWKTPMLVIHGEKDFRVPYGQGLAAFSFMQRKGIPSELLIYPDENHWILKPENLEQWYANVFRWMDSWTKK	failed
MDIVTLKDFYASVLGKRVQETLCGQLNLCWPDLTGKRVMGFGYALPYLSALRMRAQQCLAFMPAGQGALPWPCADKVATALVFEEDLPLPDASIDCILLIHALEYTENSFETLNEIWRVLVPNGQLIVIVPNRSGLWARNACTPFGYGEPYSRQQIVRLFEKTHFVSGSIQEVVHYMPSSGSVSRFFSFFYEPVARHLLPYFGGLLICQAQKRVYQGLEHHHHHH	failed
MDIWNFFTSFIVQSIAFLTHEVGVGEAVAIILFTLIGRLVLMPINLLAMANMYRNKKAISALKPELDKIKVIHKDKPNEIAKSTMALYKKNNIKILDKKSVINIASQGVFGFGMFQALQQIVFNSKFAWIANIAKPDVALALLVGVITYFSMIMMPGSAEQTSTLLFIIPAIICIITLISFPSAIGLYWATSSVTSLLQSLVLNNYFQKQEINKAI	failed
MDKENEYNKMCEEHDKYFKNLFKNLNRKIEYTFACEKENTYDDSVSNSIYTNSNQNEDNISYNNNNINNDNISSSSISKNSNNTKNSSFNETKNINDDKIKYDDKNVYDDKNINDDKNIYDDKYLYDDKNINHDKYSYDDKNINDDKYLYDDKNLYDGNNIYEENNYNNNNTNGHQMKSPTYHMKNSVQNITIYTSINKNDISKDINKINEKNTANINTSHIYQIKNDENNNNIYNNVEHIKSLCESYKNYDNDHLLYYKKHSHSKEDIHNYPIFNNAKTSQLENSNNDFLNIMNNNIKNNISEMESSKKKKKSNLLITNEIEDKLSNIQINHTNKINENNTIQYGQKTKGNKIGNHKTNIKEKLNDLIENIHLKNNKIENMNNMDDMNDMDNMNNMDDMDNTDNMNNRGNMNNRDNINNRDNMNNSNNMDNKDNMNNKDNINNKDNMNNKDNINNKDNINNLNCIDNMKHDKLQKDHLETPPIHKSPITRKSKNNIMDILNNKMNITSLENVDTSTPKYVKYNTIHREIMNPRQHFFNQNKSSIDHIICL	failed
MDKESVDTLFGMGLTAYQAKDYTKAIHALEHLREHDPSYTTLYSYLAKSYEENGEPEKAIAVLRDGLTQDEFNKEMFLEAGKLAVTLRLPEEAEEFYRQAIVLDEEFSEAIMQLNKLLLAKENYEGVIELVEGLGEEVISEPQIFWDVSVAYQETEQYNKAKANYELAYPHFTNNPTFLKEYGLFLREEGEHAKSQEVLRSYLELEPLEHHHHHH	not failed
MDKFYHFLTLTGIGLYWFLVAGVTLRVVLKRRAVSVSLAWLMIIYILPVLGVACYFLFGELNLGRKRAERAKEMFTPFAKWFSQLNDCHAHMPETMGRHIYRIDELCNNRLGLPALSGNTLSLQQSPDEILHSIIEDIENAKTSIRMVFYIWHPGGLADSVASALIQASKRGVDVKLLLDSAGSPRFFRSPWYKMMKDSGIEVIQALEVKMWRMFLRRLDLRQHRKIIVIDDEIAYTGSMNLVDPAYFKQSSGVGRWIDIMVRVTGPTVNVLSAIHCWDWEVETGERYLPKLPECKIDNSKYQHPIQVVPSGPGMPEYLIYQVLTLAINQANRSVRITTPYFVPNTDLLETLKMTAQRGIDVELIIPHKNDSLMVQWASRAFYSELLAAGVKIYEFYGGLLHTKSVVIDDQFCLVGTVNMDMRSLWLNFEVTLAVDDEEFTKQLSWLQDGYIKQSHPVVLDEWEKRSLYSRFLERVFYLFNPLL	failed
MDKHIIGENAGKLWRLLSTDVHRKWTLQEVKDATGFNDLEAASAIGWLAREDKIQFELEHHSTKDKNVFLYLMLNVYFLEHHHHHH	not failed
MDKHKKNNQKEKRVKRNLKTLLLGSPREITIPGSRFPNGTQNLVPVVDIQKGVLITEDGRYIKVLEIVPTNFYLKSRIEQQNIIYYFSCYLKIAPQSLQILVCTQRADIDAYCDQMEKYYNREKNENCKAMILEDAQLVNYLASYEAVTRRFYLIYEYKGEATEFTEISKELADQAETAYQYLDYCGLEVLRHDNYDEFLLRTVYTAYHKQSARNINFSALMEQVGPVFNTPEITEDQLEEEDSEGITTIQDVLAPTEADLEHSKYILIDGVYHAYLYITGYSYPTERGLAWLSPLIELGDGISLSFFLEKKRKEQILSKVVKTTMINRSRLRDIEDIRADYEELDDAIYSGMYIKDRLNRDGEDFFYMHTLIEVTALDETTLNKRIKQVQNLCVSMDMTARRADWCHEQCFRSMLPIAKLDMDIAKRTQRNVLTSGAAGAFPFSSFELCDNKGVLMGINLHNNSAVIVDNFNSDIYSNGNLAIFGMSGAGKTYTLLLLAMRLRMCGVQVFIIAPEKGFEYRCACEAIGGQFLRLSPGSEDCINLMEIRRSTLDIDSNLANNIQRNDSVLLSKVQDLHTYIRLRYPQITPEEAYQLNIAILECYESFGITKDNRSLLNPDGSFKAMPDFTHLYSCLLKYPSLKNVALAVKEIIDFGMGGQTNVDLFSSFIVLDTSGAKKKDISSSTFVATSFIRDELSRSRTRKKAVLGDELWVIAGEEGNEQAADFIIEMVKLIRGYGAIFVSATQNTLDYFALRDGKFGDALLNNSRLKLLLQMEEAEAIKLQEKLGLSDEEVMQVVRCGRGQGLLCAGKNRIGIEIRSSQTEYELITTNRTDLEKREARTDTAEL	failed
MDKILEILKDFGIVELRPPQKKALERGLLDKNKNFLISIPTASGKTLIGEMALINHLLDGNKNPTNKKGIFIVPLKALASEKYEEFKSKYERYGLRIALSIGDYDEDEDLSKYHLIITTAEKLDSLWRHKIDWINDVSVVVVDEIHLINDETRGGTLEILLTKLKEFNVQIIGLSATIGNPDELAEWLNAELIVDDWRPVELKKGIYKNEAIEFINGEIREIKAVDNNDIYNLVVDCVKEGGCCLVFCNTKRNAVNEAKKLNLKKFLTEEEKIRLKEIAEEILSILEPPTEMCKTLAECILNGSAFHHAGLTYQHRKIVEDAFRKRLIKVICCTPTLCLNANTEILQESGFRKITELNKDEKVFALCGKEIKPVDGWKVHKTPQHEYNIVVKTVNGLEITTTPNHIFLVKENGSLKEKEAKDLKVGDYVATVDRIRVKEKDIDLSNGDLYFIGYFIGDGYTGVIEKNTLKATPDLAFNPKYPPNFDDSELHKKYFLKCRISKGVAHYIYSKKLRKIFNKLNMLTKDNKNIDAFCNLPLDKLAYLIAGLFDSDGYIYLNRKNIEFYSISEKLVEQLQFVLLRFGIHSSIRKKKTKTMVSPTNGKEYKCKDIYVLTIRDFMSIKRFYENIPLRHEEKRRKLEEIIKNKEIGQIPSEFVALRFTPIAKIWCDCGFSVDLTMFKPRTKRQRELNKKRVKLLFELLDGKKLITNYKEYYSKRKNPYFDFIVREKINGNNYYSLNEKGRVLMSLLNKHIKDKENLEEMYNFLVNLEKCPICGKPIHKEMRYSWKKECYDGDIYWDRIKEIKKIKVNDKYAYDIELPDDGSNSHYIVANGFIVHNSAGLNLPCRRAIVKDLTRFTNKGMRYIPIMEIQQCIGRAGRPGLDPYGEGIIVAKNDRDYLRAYQALTQKPEPIYSKLSNQAVLRTQLLGLIATGEIRDEYDLEWFIRNTFYAHQYGNLREVAKNINEVIRFLEENEFIIDFMPTELGKRVSELYIDPLSAKFIIDGLEEMENEEEIYYLYLISKTLEMMPNLRVYNSEELNLIDEMDSLGIKSFEIEDLEAFKTAKMLYDWINEVPEDEILKRYKIEPGILRYKVENAVWIMHALKEIAKLIGKSSDIPEKLEIRLEYGAKEDIIELLSIKYIGRVRARKLYNAGIRSIEDIINNPSKVASIIGEKIAKKILDELGVKFGQQKLSF	failed
MDKLEAMQVYVCVVDTHSFIRAAEVLGVPRSTVSRVVKELESWLKIQLLQRTTRKLSVTAEGRRYYEECKRVLADIAAMESSFPGRAAQPKGRFKVGMPQSLARHCIIPTLPAFLRQYPELELILCSSDSVEDIILQGYDCVIRAGRIDDSTTLVARPLASFNWVIAASPTYIERYGSPENLDDLQKHYAVGYLNHRTGRTTDWFFTREGEDYAMRVQETLVVDDTDAYIQAGIQGLGLIRVASYLVAPYLHSGALVTCMDNHSYDLPLALVYPQNRFLPPAVRAFYHWCKTALSQPEPFC	failed
MDKLNKITVPASQKLRQLQKMVHDIKNNEGGIMDKIKKLKVKGPPSVPRRDYALDSPADEEEQWSDDFDSDYENPDEHSDSEMYVMPAEETGDDSYEPPPAEQQTRVVHPALPFTRGEYVDNRSSQRHSPPFSKTLPSKPSWPSAKARLASTLPAPNSLQKPQVPPKPKDLLEDEADYVVPVEDNDENYIHPRESSPPPAEKAPMVNRSTKPNSSSKHMSPPGTVAGRNSGVWDSKSSLPAAPSPLPRAGKKPATPLKTTPVPPLPNASNVCEEKPVPAERHRGSSHRQDTVQSPVFPPTQKPVHQKPVPLPRFPEAGSPAADGPFHSFPFNSTFADQEAELLGKPWYAGACDRKSAEEALHRSNKDGSFLIRKSSGHDSKQPYTLVAFFNKRVYNIPVRFIEATKQYALGKKKNGEEYFGSVVEIVNSHQHNPLVLIDSQNNTKDSTRLKYAVKVS	not failed
MDKLVKYQELVKKLLTNYASDDVSDQDVEVQLILDTERNHYQWMNVGWQGLNRIYRCVIHFDIKDGKIWLQQNLTDRNPAEELVMMGVPREDIVLGLQAPYKRQYTDYGVA	not failed
